Laboratory results as given in patent US20120226024A1.
Read-outs that look alike come from different tables or passages of the source.

Legend:
[1] = molecular target: Fucα1,6GlcNAc-CD52 (17) (human) (UniProt P31358)
[2] = molecular target: Fucα1,6GlcNAc-CD52 (17) (human) (UniProt P31358); remark: listed apart in the source

Substance	transglycosylation with sialoglycan oxazoline (12), yield of 18 [1]	also measured
Endo-F3 D126A mutant (enzyme)	> 90%	
Endo-F2 (Endoglycosidase-F2), wild type (enzyme)		transglycosylation with sialoglycan oxazoline (12), yield of 18 [2]: 25%
Endo-F3 D126Q mutant (enzyme)	> 90%	
Endo-F3 (Endoglycosidase-F3), wild type (enzyme)		transglycosylation with sialoglycan oxazoline (12), isolated yield of 18 [2]: 55%
